In one experiment the target is human PD-L1/B7-H1 (Homo sapiens, UniProt Q9NZQ7). Nature of the experiment: PD-L1 binding ELISA (Example 5). Conditions: coated antibody or immunocytokine, biotinylated human PD-L1/B7-H1. As to the method: (§1) The interaction of the unmodified antibodies and corresponding IL-18 immunocytokines with relevant immune cell associated antigen are measured by ELISA assay. For these studies, Corning high-binding half-area plates (Fisher Scientific, Reinach, Switzerland) are coated overnight at 4° C. with 25 μl of unmodified antibodies corresponding IL-18 immunocytokines at 5 μg/ml in PBS. Plates are then washed four times with 100 μl of PBS-0.02% Tween20. Plate surfaces are blocked with 25 μl of PBS-0.02% Tween20-1% BSA at 37° C. during 1 h. Plates are then washed four times with 100 μl of PBS-0.02% Tween20. […] Plates are then washed four times with 100 μl of PBS-0.02% Tween20. Twenty-five microliters of Streptavidin-Horseradish peroxidase (#RABHRP3, Merck, Buchs, Switzerland) diluted at 1:500 into PBS-0.02% Tween20-0.1% BSA are added to each well and incubated at Room Temperature during 30 min. Plates are then washed four times with 100 μl of PBS-0.02% Tween20. Fifty microliters of TMB substrate reagent (#CL07, Merck, Buchs, Switzerland) are added to each well and incubated at 37° C. during 5 min. After 5 min at 37° C., Horseradish peroxidase reaction is stopped by adding 50 μl/well of 0.5M H2SO4 stop solution. ELISA signal is then measured at 450 nm on an ENSPTRE® plate reader from Perkin Elmer (Schwerzenbach, Switzerland).
In general terms: In an ELISA, binding on a coated surface is turned into a signal by an enzyme label.

The target of experiment [1] is T1, human IL-18 binding protein isoform a (IL-18BPa) (Homo sapiens, UniProt O95998).
T1 sequence (O95998 31-194): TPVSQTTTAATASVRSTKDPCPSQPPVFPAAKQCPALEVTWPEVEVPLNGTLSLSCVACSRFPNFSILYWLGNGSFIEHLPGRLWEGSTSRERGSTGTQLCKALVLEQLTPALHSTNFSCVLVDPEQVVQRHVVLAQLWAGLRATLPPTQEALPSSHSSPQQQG
As to the kind of experiment: Cellular IL-18 Binding protein resistance assay in NK-92 cells (Example 13). Format: cell-based. Conditions: NK92 cells, IL-18 analyte 1 nM final, IL-18BPa titrated, 1 ng/ml IL-12; read-out: IC50 IL-18BP-mediated inhibition of IFNγ secretion. As for the experimental part:
The NK cell line NK-92 derived from a patient with lymphoma (ATCC, Cat #CRL-2407) was cultured in aMEM medium supplemented with 20% FCS-Glutamax, 25 μM B-mercaptoEthanol, and 100 IU/ml of recombinant Human Interleukin-2 (TL-2). On the day of experiment, cells were harvested and washed with aMEM medium without IL-2. After counting, cells were seeded at 100 000 cells/well in a 384 well titer plate and incubated at 37° C./5% CO2. Sixteen 2-fold serial dilutions of Fc fused human IL-18 binding protein isoform a (IL-18BPa; R&D systems, Cat #119-BP) were prepared in aMEM medium-1 ng/ml IL-12 containing 2 nM of each IL-18 variants and were added to the NK-92 cells. Final IL-18 analytes concentration was 1 nM and final IL-18BPa concentrations ranged from to 566 nM down to 17 pM.
After 16-20 h incubation at 37° C./5% CO2, 5 μl of supernatant were carefully transferred to a 384 microwells OPTIplate (Perkin Elmer; Cat #6007270) and Interferon-gamma (IFNγ) levels measured using the Human IFNγ AlphaLISA Assay Kit (Perkin Elmer, Cat #AL217C). Briefly, 10 μl of 2.5× AlphaLISA Anti-IFNγ acceptor beads and biotinylated Antibody Anti-IFNγ mix were added to the 5 μl of NK-92 supernatants and incubated for 1 h at room temperature under shaking. Under subdued light, 2.5 μl of 2× streptavidin (SA) donor beads were pipetted in each well and incubated for 30 min at room temperature under shaking. AlphaLisa signal was then measured on an Enspire plate reader (Perkin Elmer) using 680 and 615 nm as excitation and emission wavelengths respectively. Half maximal inhibitory concentration (IC50) was calculated based on a variable slope, four parameter analysis using GraphPad PRISM software.

In experiment [2] the test system is parental PD-1 negative KG-1 cells. As to the kind of experiment: IFN gamma secretion assay in parental PD-1 negative KG-1 cells (Example 11). The experiment is classed as cell-based, human. Conditions: IFNγ secretion, 20-24 h. As for the experimental part:
The KG-1 cell line was used to generate a PD-1 expressing cell line and furthermore, to measure IFNγ release upon incubation with TL-18 variants and corresponding TL-18 immunocytokines.
IFNγ release was assessed in PD-1 positive (transduced) KG-1 cells, as well as in the parental PD-1 negative cells. 0.5×10^5 cells were seeded into a 96-well U-bottom plate in culture media (RPMI, 10% FBS, […]) and stimulated with IL-18 variants/ICs for 20-24 h. The test items were diluted to 100 nM in culture medium, followed by 7 10-fold serial dilutions. The lowest concentration assessed was […]. After incubation, IFNγ release was measured using the LEGENDplex custom human mix and match KIT (Biolegend LEGENDplex™ Human IFN-γ Capture Bead B5, 13×#740942, LEGENDplex™ P 1 Essential Immune Response Panel Detection Abs, #740931, LEGENDplex™ Buffer Set A #740368). To this end, cell culture supernatant was collected and diluted 1:1 with Assay Buffer. Fluorescence measurements were done with a Quanteon Flow Cytometer from Acea Biosciences. For analysis, MFI values (median fluorescence intensity) were exported and plotted against concentrations used. The EC50 values (half maximal effective concentration) were calculated based on a variable slope and four parameter analysis using GraphPad PRISM software version 9.

The target of the next experiment is human PD-1/CD279 (Homo sapiens, UniProt Q15116). Nature of the experiment: PD-1 binding ELISA (Example 5). Conditions: coated antibody or immunocytokine, biotinylated human PD-1/CD279-Fc. As for the experimental part: as §1

pEC50, pIC50, pKd: −log10 of the molar value.

human PD-L1/B7-H1, sequence (Q9NZQ7 19-290): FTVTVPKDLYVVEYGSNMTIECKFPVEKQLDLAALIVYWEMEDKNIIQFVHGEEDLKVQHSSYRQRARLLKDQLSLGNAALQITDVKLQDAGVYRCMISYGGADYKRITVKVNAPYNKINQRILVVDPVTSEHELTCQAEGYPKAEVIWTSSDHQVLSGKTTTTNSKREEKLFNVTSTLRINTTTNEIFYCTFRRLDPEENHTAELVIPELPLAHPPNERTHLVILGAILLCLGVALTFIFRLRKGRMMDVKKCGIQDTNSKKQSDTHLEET
human PD-1/CD279, sequence (Q15116 25-288): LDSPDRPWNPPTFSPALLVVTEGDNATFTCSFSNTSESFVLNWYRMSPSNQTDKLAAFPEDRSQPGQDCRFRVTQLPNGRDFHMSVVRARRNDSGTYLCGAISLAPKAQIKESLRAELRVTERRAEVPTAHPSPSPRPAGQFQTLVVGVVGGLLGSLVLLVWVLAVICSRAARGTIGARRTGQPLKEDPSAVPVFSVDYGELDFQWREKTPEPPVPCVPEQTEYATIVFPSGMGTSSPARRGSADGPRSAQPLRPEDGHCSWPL

As usually defined, the pKd is the negative decadic logarithm of the Kd, by convention in mol/L. A lower pKd goes with a large Kd. “LZM-009: anti-PD-1 antibody (VH SEQ ID NO: 376, VL SEQ ID NO: 377), unconjugated reference antibody [reference compound]” gave a pKd with human PD-L1/B7-H1 of less than 7.00.

The term pIC50 denotes the IC50 on a negative log10 scale, so that one unit is a factor of ten. The pEC50 is the negative decadic logarithm of the EC50, by convention in mol/L. Take “Composition B: immunocytokine: Atezolizumab/Tecentriq (anti-PD-L1) conjugated to IL-18 polypeptide SEQ ID NO: 30”: in experiment [1], the pIC50 is less than 6.00. Moreover, the pEC50 in experiment [2] was 11.80. The pKd in the experiment with human PD-1/CD279 was less than 7.00.

For “Atezolizumab/Tecentriq: anti-PD-L1 antibody, unconjugated reference antibody [reference compound]”, the figures for the pKd with human PD-1/CD279 and with human PD-L1/B7-H1 were less than 7.00 and 9.35, respectively.

For the origin of these results see patent US12383631B2, “Immune antigen specific IL-18 immunocytokines and uses thereof” (Bright Peak Therapeutics AG, priority 2022, dated 2025).
